Measured values as given in the supplement of paper PMC9170038.

Test system: MS2 coat protein
Assay: apparent KD of MS2 coat protein; designed switch direction (-1 OFF switch, 1 ON switch): -1; higher = weaker reporter binding
Procedure, shortened: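 On Illumina chips, designed RNA switches with common flanks were made by stalled E. coli RNA polymerase. Titrations with SNAP-549-labelled MS2 coat protein, doubling from 0.7 or 1.5 nM to 3 µM, were done with no input, with 200 uM small-molecule ligand, or with an oligonucleotide input. Apparent KD is the median per design over clusters, from curve fits of normalised cluster fluorescence.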

[1] = Eterna round: R95, input ligand: FMN 200 uM
[2] = Eterna round: R95, input ligand: microRNA oligo, concentration not stated
[3] = Eterna round: R95, input ligand: none
[4] = input ligand: microRNA oligo, concentration not stated

Sequence: GAGUGCUGAGGAUAUACAUGAGGAUCACCCAUGUGCUUCAGCUAGGAGACUAGCAUUCGUAGAAGGCAGUACUC [Mod of lroppy 22 - Jieux - Exclusion 3] (Eterna round: R97, puzzle: Exclusion 3)
- apparent KD of MS2 coat protein (input ligand: FMN 200 uM): 0.0426 µM
- apparent KD of MS2 coat protein (input ligand: none): 0.0147 µM

Sequence: GUGGUGGGUUUUCCGAGUAACAUGAGGAUCACCCAUGUAUUAGUUUGAUGUAUCAAGCGAAUGGCUCGUCUUAUAUA [JR_SV3TOV1_Sub045] (puzzle: Sensor v3, turn-off variant 1)
- apparent KD of MS2 coat protein [1]: 0.128 µM
- apparent KD of MS2 coat protein [2]: 0.0145 µM
- apparent KD of MS2 coat protein [3]: 0.107 µM

Sequence: CUUUGCACGCUGCGGUCCUACAUGAGGAUCACCCAUGUGGUCUGGUGGCGUGGGUCGCCGGACUUGGCUCGUCUUGU [salish99_S_TOV1_R5_041] (Eterna round: R97, puzzle: Sensor, turn-off variant 1)
- apparent KD of MS2 coat protein (input ligand: FMN 200 uM): 0.0182 µM
- apparent KD of MS2 coat protein (input ligand: none): 0.0188 µM

Sequence: CCAUGUUAGCAGGAUAUGCUAUUAAUCUUUUAUGCAGAAGGGCUUACAUGAGGAUCACCCAUGUAUUAAGUCUU [JR_E6_Sub076] (puzzle: Exclusion 6)
- apparent KD of MS2 coat protein [2]: 0.0119 µM

Sequence: GGAUCUUGGGUCAGGAUAUGCUGGUAUUUUUGCCAGCAGAAGGGACAUGAGGAUCACCCAUGUUCUUGGUUUUG [Magic-15] (puzzle: Brourd's mod of Exclusion 4)
- apparent KD of MS2 coat protein [2]: 0.011 µM

Sequence: UUUCUCUGUGUGAGGAUAUACUUGUUUGGGUUUUUGUAGAAGGCACAUGAGGAUCACCCAUGUAUUUUGUCGUG [JR_BME4_Sub019] (puzzle: Brourd's mod of Exclusion 4)
- apparent KD of MS2 coat protein [2]: 0.0315 µM

Sequence: AAGUAUCAUGUAGGAUAUGCUAACCGAACGUUAGCAGAAGGACAUGAGGAUCACCCAUGUUCUCAUCUGUAAGAACAGAUGUCU [Ex NG1 #6] (Eterna round: R96, puzzle: Exclusion NG 1)
- apparent KD of MS2 coat protein (input ligand: FMN 200 uM): 0.0279 µM
- apparent KD of MS2 coat protein [4]: 0.0126 µM
- apparent KD of MS2 coat protein (input ligand: none): 0.0155 µM

Sequence: CAGUACUGAGGAUAUACAUGAGGAUCACCCAUGUUGAGAUGAAAAGAAAGAGUUAAAUGUAGAAGGCGGUGCUG [JR_Ex3_Sub047] (Eterna round: R97, puzzle: Exclusion 3)
- apparent KD of MS2 coat protein (input ligand: FMN 200 uM): 0.523 µM
- apparent KD of MS2 coat protein (input ligand: none): 0.0711 µM

Sequence: GCGCACCUACCAAAAGGUAGGUCCACAUGAGGAUCACCCAUGUAGGAUAUCGAUUGCUUUGCAGUCGAGAAGGACAUGAUGCGC [JL ENG3 3.80 Mod 10] (Eterna round: R96, puzzle: Exclusion NG 3)
- apparent KD of MS2 coat protein (input ligand: FMN 200 uM): 0.0523 µM
- apparent KD of MS2 coat protein [4]: 0.0181 µM
- apparent KD of MS2 coat protein (input ligand: none): 0.0213 µM

Sequence: CAUAUGUUAGGAUAUGCACAGAUCUCCGAAAGGAGAUCUGUGCAGAAGGAACAUGAGGAUCACCCAUGUUGAUG [Mod of Brourd 17 - Jieux - Exclusion 4] (Eterna round: R97, puzzle: Exclusion 4)
- apparent KD of MS2 coat protein (input ligand: FMN 200 uM): 0.176 µM
- apparent KD of MS2 coat protein (input ligand: none): 0.0342 µM

Sequence: UGGGUUCUCCAUAGAAGUAACAUGAGGAUCACCCAUGUAGGGCAAGUUUUUUGCUCGUCAUAGGUUGAGGGAUUGGA [JR_SV3TOV1_Sub017] (puzzle: Sensor v3, turn-off variant 1)
- apparent KD of MS2 coat protein [1]: 0.968 µM
- apparent KD of MS2 coat protein [2]: 0.441 µM
- apparent KD of MS2 coat protein [3]: 0.634 µM

Sequence: UUGUUGUAUGUAGGAUAUGCAUAUUAUUAUUAUGCAGAAGGACAUGAGGAUCACCCAUGUGUAUUAUUAUUAUAUAUUAUAUAU [Title] (Eterna round: R96, puzzle: Exclusion NG 1)
- apparent KD of MS2 coat protein [4]: 0.02 µM

Sequence: GCUAGAGCAGGAUAUCUAAAUCCUCACAUGAGGAUCACCCAUGUAGUCGAAAGACUAAGAAGAGAAGGGCUCUAGC [Omei Ex5 E19] (Eterna round: R97, puzzle: Exclusion 5)
- apparent KD of MS2 coat protein (input ligand: FMN 200 uM): 0.543 µM
- apparent KD of MS2 coat protein (input ligand: none): 1.29 µM

Sequence: AGAAGUAGAAACCGAUCCUACAUGAGGAUCACCCAUGUAGCAAGACGUGCACGCGAAGCUCGUCAGACUACCAGAAC [salish99_TOv1_r3_008] (puzzle: Sensor v3, turn-off variant 1)
- apparent KD of MS2 coat protein [1]: 0.229 µM
- apparent KD of MS2 coat protein [2]: 0.264 µM
- apparent KD of MS2 coat protein [3]: 0.421 µM

Sequence: AUAUUAAUAGUAAGGAUAUGCGUAUAUAUAAUUAUGCAGAAGGUACAUGAGGAUCACCCAUGUAUUAAUGUGUA [LRO-BmodExc4-02-Oppy's Opus] (Eterna round: R97, puzzle: Brourd's mod of Exclusion 4)
- apparent KD of MS2 coat protein (input ligand: FMN 200 uM): 0.0135 µM
- apparent KD of MS2 coat protein (input ligand: none): 0.013 µM

Sequence: CAUACUCAAGUCAGGAUAUACAGUCGGAUACGGGUGUAGAAGGGACAUGAGGAUCACCCAUGUAGAGAGUAAAG [EX-4 Malc #23] (puzzle: Brourd's mod of Exclusion 4)
- apparent KD of MS2 coat protein [1]: 0.087 µM
- apparent KD of MS2 coat protein [2]: 0.0311 µM
- apparent KD of MS2 coat protein [3]: 0.0538 µM

Sequence: UAGUUAUUCACAGGAUAUCGCCUCUUAUUACAUGAGGAUCACCCAUGUUUAUUUUGUUACAUGUUCGAGAAGGGUGUAGUCUUU [JR_ExcNG2_Sub046] (Eterna round: R96, puzzle: Exclusion NG 2)
- apparent KD of MS2 coat protein (input ligand: FMN 200 uM): 0.439 µM
- apparent KD of MS2 coat protein [4]: 0.436 µM
- apparent KD of MS2 coat protein (input ligand: none): 0.535 µM

Sequence: AAACAGCGAGGAUAUGCAGACGCUCCUUCCUCACGUCAAGGACAUGAGGAUCACCCAUGUAGAAGGCGCACAAC [Isriteti] (Eterna round: R97, puzzle: Exclusion 2)
- apparent KD of MS2 coat protein (input ligand: FMN 200 uM): 0.116 µM
- apparent KD of MS2 coat protein (input ligand: none): 0.076 µM

Sequence: GUAAAGGGUGUCCUUAAAACAUGAGGAUCACCCAUGUGGACUAAGGAUAUCCAAAAUAAAGAUAAGGAGAAGGUAGUGGAAAGA [Usarqudi] (Eterna round: R96, puzzle: Exclusion NG 3)
- apparent KD of MS2 coat protein (input ligand: FMN 200 uM): 0.0193 µM
- apparent KD of MS2 coat protein [4]: 0.0199 µM
- apparent KD of MS2 coat protein (input ligand: none): 0.014 µM

Sequence: UACAGUCAUCCUUAUUGUUACAUGAGGAUCACCCAUGUUAGUAUAGUUAAGUUAUGUGAGUUUGUUGUUCGUUUUAU [JR_STOV1_v2_Sub078] (Eterna round: R97, puzzle: Sensor, turn-off variant 1)
- apparent KD of MS2 coat protein (input ligand: FMN 200 uM): 0.125 µM
- apparent KD of MS2 coat protein (input ligand: none): 0.146 µM

Sequence: UGAAUACGUGUUAGGAUAUGGUUUGGUAUUUUAGAUUAGAAGGGACAUGAGGAUCACCCAUGUAAUUGAUAGGU [-13, -10.4 kcal, 30% A] (Eterna round: R97, puzzle: Brourd's mod of Exclusion 4)
- apparent KD of MS2 coat protein (input ligand: FMN 200 uM): 0.038 µM
- apparent KD of MS2 coat protein (input ligand: none): 0.0419 µM

Sequence: ACAUGUAAUGUAGGAUAUUUUACACAUGAGGAUCACCCAUGUGACCGGAGGCUUUACUAUGAGUAAGAGAAGGGUAUGUACAUG [Ex NG2 #62] (Eterna round: R96, puzzle: Exclusion NG 2)
- apparent KD of MS2 coat protein (input ligand: FMN 200 uM): 0.0905 µM
- apparent KD of MS2 coat protein [4]: 0.0566 µM
- apparent KD of MS2 coat protein (input ligand: none): 0.0867 µM

Sequence: GCCUCACUUGAGGAUCACCCAAGUCAGGAUAUUCACGGAACUACGUAGUAGUUCGGCCGGAGAAGGGAUUCGGG [Qubexe] (Eterna round: R97, puzzle: Exclusion 1)
- apparent KD of MS2 coat protein (input ligand: FMN 200 uM): 0.0648 µM
- apparent KD of MS2 coat protein (input ligand: none): 0.0418 µM

Sequence: GCAGUAUGAGUUAGGAUAUGAUGAUUUUUAUUAAAUCAGAAGGAACUUGAGGAUCACCCAAGUAAAGAAUUGGU [JR_BMEx4_Sub069] (Eterna round: R97, puzzle: Brourd's mod of Exclusion 4)
- apparent KD of MS2 coat protein (input ligand: FMN 200 uM): 0.0233 µM
- apparent KD of MS2 coat protein (input ligand: none): 0.0204 µM

Sequence: GAUGUGAGACAGGAUAUCCACGGGAUAGUCUGAGGAGAAGGGUCUACAUGAGGAUCACCCAUGUGCGUCCCUCA [EX6 B.8] (Eterna round: R97, puzzle: Exclusion 6)
- apparent KD of MS2 coat protein (input ligand: FMN 200 uM): 0.0224 µM
- apparent KD of MS2 coat protein (input ligand: none): 0.0155 µM
